Drawing on PMC4141210 (FEBS Open Bio, 2014), this text covers relative band intensity and Kd for four molecules.

The labels stand for the following.
B3: His–M1 (influenza virus M1 protein, wild type) (natural protein)
chain: MSLLTEVETYVLSIIPSGPLKAEIAQRLEDVFAGKNTDLEVLMEWLKTRPILSPLTKGILGFVFTLTVPSERGLQRRRFVQNALNGNGDPNNMDKAVKLYRKLKREITFHGAKEISLSYSAGALASCMGLIYNRMGAVTTEVAFGLVCATCEQIADSQHRSHRQMVTTTNPLIRHENRMVLASTTAKAMEQMAGSSEQAAEAMEVASQARQMVQAMRTIGTHPSSSAGLKNDLLENLQAYQKRMGVQMQRFK

Experiment [1] deals with B3. The experiment in a line: far-Western, overlay or dot blot.
Experiment [2] has as its target GST–Hsc70 wild-type (1–646 aa) (UniProt P11142 1-646). The experiment is described as follows: pull-down.
Experiment [3] addresses B3. The experiment in a line: pull-down.

Chain of GST–Hsc70 wild-type (1–646 aa) (P11142 whole entry, the tested form may be a part): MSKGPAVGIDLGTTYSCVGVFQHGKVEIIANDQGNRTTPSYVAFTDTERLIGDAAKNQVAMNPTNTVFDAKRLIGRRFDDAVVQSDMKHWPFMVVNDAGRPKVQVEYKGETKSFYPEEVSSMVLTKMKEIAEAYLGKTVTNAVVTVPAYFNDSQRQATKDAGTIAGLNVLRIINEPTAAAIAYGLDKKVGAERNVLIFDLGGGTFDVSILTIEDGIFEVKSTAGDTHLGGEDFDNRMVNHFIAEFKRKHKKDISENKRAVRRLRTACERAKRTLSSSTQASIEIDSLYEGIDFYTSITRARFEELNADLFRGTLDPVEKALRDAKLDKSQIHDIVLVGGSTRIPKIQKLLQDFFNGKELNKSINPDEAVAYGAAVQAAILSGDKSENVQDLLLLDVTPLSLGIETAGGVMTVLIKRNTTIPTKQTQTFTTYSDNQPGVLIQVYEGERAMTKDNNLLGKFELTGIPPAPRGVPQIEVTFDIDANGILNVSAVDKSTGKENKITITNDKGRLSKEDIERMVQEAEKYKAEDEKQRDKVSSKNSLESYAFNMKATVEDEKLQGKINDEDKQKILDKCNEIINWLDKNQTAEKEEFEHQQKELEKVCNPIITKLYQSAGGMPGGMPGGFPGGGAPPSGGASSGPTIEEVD

B1: GST–Hsc70 N402 (1–402 aa) (domain or fragment)
chain: not shown
As for B1, the relative band intensity in experiment [1] is 0.71 relative (wild type = 1).

B2: GST–Hsc70 N384 (1–384 aa) (domain or fragment)
chain: not shown
Take B2: the relative band intensity in experiment [1] is 0.26 relative (wild type = 1).

By Kd is commonly meant the equilibrium constant for the complex coming apart. B3 gave a Kd in experiment [2] of 0.1 µM.

B4: GST–NS2 (natural protein)
chain: MDPNTVSSFQDILLRMSKMQLESSSGDLNGMITQFESLKLYRDSLGEAVMRMGDLHSLQNRNEKWREQLGQKFEEIRWLIEEVRHKLKITENSFEQITFMQALHLLLEVEQEIRTFSFQLI
Turning to B4, binding in experiment [3] was put at a Kd of 6 µM.
